Numbering of substitutions follows the chain as printed. Names may count otherwise.
B1: CaHPPD-F372A-02: Cicer arietinum HPPD mutant F372A, SEQ ID NO: 84 (protein)
chain: MGTIETQTGFKLVGFNNFVRTNPKSDRFKVKRFHHVEFWCPDATNTARRFSWGLGMPIVAKSDLSTGNQTHASYLLRSGDLNFLFTAAYSPSISLSAPHPTASIPSFSAPTSFAFSASHGLGVRAVAIEVDDAEFAYTTSVNHGAIPSSPPVVLDNRVKLAEVQLYGDVVLRYVSYNDPIETSNPNPNHWFLPGFEPVEETSSNQSIDFGIQRLDHAVGNVPELSSALNYVKQFTGFHEFAEFTAEDVGTSESGLNSTVLANNEETVLLPMNEPVYGTKRKSQIQTYLEHNEGAGLQHLALMSNDIFKTLREMRKRSGIGGFEFMPSPPPTYYSNLKKRVGDVLNDEQIKECEELGILVDKDDQGTLLQIATKPVGDRPTIFIEIIQRVGCMLKDDEGKEYQKGGCGGFGKGNFSELFKSIEEYEKTLEIKRTA
modifications: CaHPPDm-F372A Amino Acid Sequence
B2: BnHPPD-02: native Brassica napus HPPD, SEQ ID NO: 87 (protein, listed as Brassica napus)
chain: MGHENAAVCETQQHDDAASPGFKLVGFSKFVRKNPKSDKFKVKRFHHIEFWCGDATNVSRRFSWGLGMRFSAKSDLSTGNMVHASYLLTSGDLRFLFTAPYSPSLSAGEAQPSATASIPSFDHASCRSFFSSHGLGVRAVAIEVEDAESAFSISVANGAVPSSPPNVLNGAVTIAEVKLYGDVVLRYVSYYNGTVSFLPGFESVDDTSSFPLDYGIRRLDHAVGNVPELGPALTYLAGFTGFHQFAEFTADDVGTAESGLNSAVLANNDEMVLLPINEPVHGTKRKSQIQTFLEHNEGAGLQHLALMSEDIFRTLREMRKRSGVGGFDFMPSPPPTYYKNLKKRVGDVLSEEQIEECEELGILVDRDDQGTLLQIFTKPLGDRPTIFIEIIQRVGCMKRDEEGKVYQSGGCGGFGKGNFSELFKSIEEYEKTLEAKQLVG
modifications: BnHPPD Amino Acid Sequence
B3: BnHPPDm-F372A-02: Brassica napus HPPD mutant F372A, SEQ ID NO: 90 (protein)
chain: B2 chain with F376A
modifications: BnHPPDm-F372A Amino Acid Sequence
B4: HaHPPD-02: native Helianthus annuus HPPD, SEQ ID NO: 93 (protein, listed as Helianthus annuus)
chain: MGTEATVAAVVAGDESDHPTSAFKLVGFKNFIRTNPMSDKFTVKNFHHIEFWCSDATNTARRFSWGLGMPIIFKSDLSTGNSTHASYLLRSGHLNFLFTAPYSPSISPTTTTASIPTFSHSASRHFTATHGLAVRAIAVEVEDAETAFAVSVANGAKPSSPPVTLGHNDVVLSEVKLYGDVVLRYVSYKNNTNNNNNNDNDNYIFLPGFEAMDKTSSFQELDYGIRRLDHAVGNVPELAPAVDYVKSFTGFHEFAEFTAEDVGTSESGLNSVVLACNSEMVLIPMNEPVYGTKRKSQIQTYLEHNEGAGVQHLALASEDIFRTLREMRKRSGVGGFEFMPSPPPTYYRNLKSRAGDVLSDEQIKECEELGILVDRDDQGTLLQIFTKPVGDRPTIFIEIIQRVGCMVKDDEGKVQQKAGCGGFGKGNFSELFKSIEEYEKTLEARSTTAAA
modifications: HaHPPD Amino Acid Sequence
B5: ZmHPPD-02: native Zea mays HPPD, SEQ ID NO: 17 (protein)
chain: MPPTPTAAAAGAAVAAASAAEQAAFRLVGHRNFVRFNPRSDRFHTLAFHHVELWCADAASAAGRFSFGLGAPLAARSDLSTGNSAHASLLLRSGSLSFLFTAPYAHGADAATAALPSFSAAAARRFAADHGLAVRAVALRVADAEEAFRTSVAAGARPAFGPVDLGRGFRLAEVELYGDVVLRYVSYPDGAAGEPFLPGFEGVASPGAADYGLSRFDHIVGNVPELAPAAAYFAGFTGFHEFAEFTTEDVGTAESGLNSMVLANNSENVLLPLNEPVHGTKRRSQIQTFLDHHGGPGVQHMALASDDVLRTLREMQARSAMGGFEFMAPPTSDYYDGVRRRAGDVLTEAQIKECQELGVLVDRDDQGVLLQIFPKPVGDRPTLFLEIIQRIGCMERDEKGQEYQKGGCGGFGKGNFSQLFKSIEDYEKSLEAMQAAAAATAQGS
modifications: Zea mays; ZmHPPD Amino Acid Sequence (Zea mays)
B6: HaHPPDm-F372A-02: Helianthus annuus HPPD mutant F372A, SEQ ID NO: 96 (protein)
chain: B4 chain with F385A
modifications: HaHPPDm-F372A Amino Acid Sequence

tested on: Arabidopsis thaliana T1 plants; test: Topramezone tolerance of transgenic Arabidopsis thaliana T1 plants (pesticide damage grade by bleached leaf area, score, resistance evaluation); format: in vivo; settings: HPPDs from different species; number of plants (of 16) in this grade; topramezone 25 g ai/ha (1x), 7 DAT
Summary of the method: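 Herbicide tolerance was judged per plant on a bleaching scale (grade 0 no bleaching to grade 3 fully bleached) 7 DAT. Topramezone doses were 0, 25, 50 and 100 g ai/ha on 18-day-old T1 and wild-type plants.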

Question: How did the “Classification and statistics of pesticide damage grade Grade 0” value turn out when B1 was run?
Answer: The value was 0.

Question: And the “Classification and statistics of pesticide damage grade Grade 1” value?
Answer: Its value is 13.

Question: What about the “Classification and statistics of pesticide damage grade Grade 2” value of the same molecule?
Answer: Its value is 3.

Question: What about the “Classification and statistics of pesticide damage grade Grade 3” value of the same molecule?
Answer: The value was 0.

Question: Which results are given for B2?
Answer: Classification and statistics of pesticide damage grade Grade 0: 0; Classification and statistics of pesticide damage grade Grade 1: 0; Classification and statistics of pesticide damage grade Grade 2: 0; Classification and statistics of pesticide damage grade Grade 3: 16

Question: Which “Classification and statistics of pesticide damage grade Grade 0” value does the source give for B3 here?
Answer: Its value is 0.

Question: And the “Classification and statistics of pesticide damage grade Grade 1” value?
Answer: The value was 4.

Question: What about the “Classification and statistics of pesticide damage grade Grade 2” value of the same molecule?
Answer: The value was 12.

Question: And the “Classification and statistics of pesticide damage grade Grade 3” value?
Answer: Its value is 0.

Question: With B4 as the molecule, how does the “Classification and statistics of pesticide damage grade Grade 0” value read?
Answer: Its value is 0.

Question: And the “Classification and statistics of pesticide damage grade Grade 1” value?
Answer: Its value is 0.

Question: What about the “Classification and statistics of pesticide damage grade Grade 2” value of the same molecule?
Answer: Its value is 0.

Question: And the “Classification and statistics of pesticide damage grade Grade 3” value?
Answer: The value was 16.

Question: How did the “Classification and statistics of pesticide damage grade Grade 0” value turn out when B5 was run?
Answer: The value was 0.

Question: And the “Classification and statistics of pesticide damage grade Grade 1” value?
Answer: The value was 0.

Question: And the “Classification and statistics of pesticide damage grade Grade 2” value?
Answer: Its value is 0.

Question: What about the “Classification and statistics of pesticide damage grade Grade 3” value of the same molecule?
Answer: Its value is 16.

Question: Which results are given for B6?
Answer: Classification and statistics of pesticide damage grade Grade 0: 0; Classification and statistics of pesticide damage grade Grade 1: 8; Classification and statistics of pesticide damage grade Grade 2: 8; Classification and statistics of pesticide damage grade Grade 3: 0

same assay, conditions: HPPDs from different species; number of plants (of 16) in this grade; topramezone 100 g ai/ha (4x), 7 DAT

Question: B1 was tested. Which “Classification and statistics of pesticide damage grade Grade 0” value did it give?
Answer: The value was 0.

Question: What about the “Classification and statistics of pesticide damage grade Grade 1” value of the same molecule?
Answer: Its value is 0.

Question: What about the “Classification and statistics of pesticide damage grade Grade 2” value of the same molecule?
Answer: Its value is 0.

Question: And the “Classification and statistics of pesticide damage grade Grade 3” value?
Answer: The value was 16.

Question: For B2, which “Classification and statistics of pesticide damage grade Grade 0” value is on record?
Answer: Its value is 0.

Question: And the “Classification and statistics of pesticide damage grade Grade 1” value?
Answer: The value was 0.

Question: And the “Classification and statistics of pesticide damage grade Grade 2” value?
Answer: The value was 0.

Question: And the “Classification and statistics of pesticide damage grade Grade 3” value?
Answer: The value was 16.

Question: With B3 as the molecule, how does the “Classification and statistics of pesticide damage grade Grade 0” value read?
Answer: Its value is 0.

Question: And the “Classification and statistics of pesticide damage grade Grade 1” value?
Answer: The value was 0.

Question: What about the “Classification and statistics of pesticide damage grade Grade 2” value of the same molecule?
Answer: Its value is 0.

Question: And the “Classification and statistics of pesticide damage grade Grade 3” value?
Answer: Its value is 16.

Question: B4 was tested. Which “Classification and statistics of pesticide damage grade Grade 0” value did it give?
Answer: The value was 0.

Question: What about the “Classification and statistics of pesticide damage grade Grade 1” value of the same molecule?
Answer: Its value is 0.

Question: And the “Classification and statistics of pesticide damage grade Grade 2” value?
Answer: The value was 0.

Question: And the “Classification and statistics of pesticide damage grade Grade 3” value?
Answer: The value was 16.

Question: What does the source list for B5?
Answer: Classification and statistics of pesticide damage grade Grade 0: 0; Classification and statistics of pesticide damage grade Grade 1: 0; Classification and statistics of pesticide damage grade Grade 2: 0; Classification and statistics of pesticide damage grade Grade 3: 16

Question: Which “Classification and statistics of pesticide damage grade Grade 0” value does the source give for B6 here?
Answer: The value was 0.

Question: What about the “Classification and statistics of pesticide damage grade Grade 1” value of the same molecule?
Answer: Its value is 2.

Question: And the “Classification and statistics of pesticide damage grade Grade 2” value?
Answer: Its value is 12.

Question: And the “Classification and statistics of pesticide damage grade Grade 3” value?
Answer: Its value is 2.

same assay, conditions: HPPDs from different species; score for pesticide damage 0-100; topramezone 25 g ai/ha (1x), 7 DAT

Question: How did the Scores turn out when B1 was run?
Answer: The Scores was 40.

Question: Which Scores does the source give for B2 here?
Answer: The Scores was 100.

Question: Which Scores does the source give for B3 here?
Answer: The Scores was 58.

Question: How did the Scores turn out when B4 was run?
Answer: Its Scores is 100.

Question: B5 was tested. Which Scores did it give?
Answer: The Scores was 100.

Question: How did the Scores turn out when B6 was run?
Answer: Its Scores is 50.

same assay, conditions: HPPDs from different species; score for pesticide damage 0-100; topramezone 100 g ai/ha (4x), 7 DAT

Question: For B1, which Scores is on record?
Answer: The Scores was 100.

Question: B2 was tested. Which Scores did it give?
Answer: Its Scores is 100.

Question: With B3 as the molecule, how does the Scores read?
Answer: Its Scores is 100.

Question: For B4, which Scores is on record?
Answer: The Scores was 100.

Question: How did the Scores turn out when B5 was run?
Answer: Its Scores is 100.

Question: How did the Scores turn out when B6 was run?
Answer: Its Scores is 67.

same assay, conditions: HPPDs from different species; topramezone 25 g ai/ha (1x), 7 DAT

Question: Which Resistance evaluation does the source give for B1 here?
Answer: The Resistance evaluation was “poorly resistant (poorly resistant plants (scores 34-67))”.

Question: B2 was tested. Which Resistance evaluation did it give?
Answer: The Resistance evaluation was “non-resistant (non-resistant plants (scores 68-100))”.

Question: For B3, which Resistance evaluation is on record?
Answer: The Resistance evaluation was “poorly resistant (poorly resistant plants (scores 34-67))”.

Question: With B4 as the molecule, how does the Resistance evaluation read?
Answer: The Resistance evaluation was “non-resistant (non-resistant plants (scores 68-100))”.

Question: With B5 as the molecule, how does the Resistance evaluation read?
Answer: Its Resistance evaluation is “non-resistant (non-resistant plants (scores 68-100))”.

Question: With B6 as the molecule, how does the Resistance evaluation read?
Answer: The Resistance evaluation was “poorly resistant (poorly resistant plants (scores 34-67))”.

same assay, conditions: HPPDs from different species; topramezone 100 g ai/ha (4x), 7 DAT

Question: Which Resistance evaluation does the source give for B1 here?
Answer: Its Resistance evaluation is “non-resistant (non-resistant plants (scores 68-100))”.

Question: How did the Resistance evaluation turn out when B2 was run?
Answer: Its Resistance evaluation is “non-resistant (non-resistant plants (scores 68-100))”.

Question: With B3 as the molecule, how does the Resistance evaluation read?
Answer: Its Resistance evaluation is “non-resistant (non-resistant plants (scores 68-100))”.

Question: How did the Resistance evaluation turn out when B4 was run?
Answer: The Resistance evaluation was “non-resistant (non-resistant plants (scores 68-100))”.

Question: B5 was tested. Which Resistance evaluation did it give?
Answer: The Resistance evaluation was “non-resistant (non-resistant plants (scores 68-100))”.

Question: B6 was tested. Which Resistance evaluation did it give?
Answer: Its Resistance evaluation is “poorly resistant (poorly resistant plants (scores 34-67))”.
